Assay [1] concerns the target human PD-1 expressed on cells (Jurkat.hPD-1.IL2luc clone DT999A1; CD4+ T cell clone BC4-49) (human, UniProt Q15116 25-288). Briefly: cell-based or functional assay.
In assay [2] the target is T1, polyhistidine-tagged human PD-1 (hPD1-His, 98AFK) (human, UniProt Q15116 25-167, limits assumed).
T1 construct: also called human PD1-His; Human PD-1-His; not shown: polyhistidine tag
Briefly: SPR solution affinity; reference Humanized 08A IgG4 S61N (98AIO). The method, then:
The titration series were incubated for 16-24 hours to reach equilibrium at room temperature. The unbound sites were measured using a BIAcore chip immobilized with antigen in a competition mode where SPR signal detected corresponded to unbound antibody.
Free, unbound antibodies concentrations were measured as proportional to RU after 120 seconds (for 500 pM mAb series) or 400 seconds (for 100 pM mAb series) of injection at 10 μL/min.
Data analyses were performed using KINEXA Pro Version 1.02 (Sapydyne) where RUs were normalized and plotted against concentrations.

The target in assay [3] is T2, human LAG-3 expressed by the CD4+ T-cell clone BC4-49 (human, UniProt P18627 23-525).
T2 construct: whole, on cells
T2 sequence (looked up): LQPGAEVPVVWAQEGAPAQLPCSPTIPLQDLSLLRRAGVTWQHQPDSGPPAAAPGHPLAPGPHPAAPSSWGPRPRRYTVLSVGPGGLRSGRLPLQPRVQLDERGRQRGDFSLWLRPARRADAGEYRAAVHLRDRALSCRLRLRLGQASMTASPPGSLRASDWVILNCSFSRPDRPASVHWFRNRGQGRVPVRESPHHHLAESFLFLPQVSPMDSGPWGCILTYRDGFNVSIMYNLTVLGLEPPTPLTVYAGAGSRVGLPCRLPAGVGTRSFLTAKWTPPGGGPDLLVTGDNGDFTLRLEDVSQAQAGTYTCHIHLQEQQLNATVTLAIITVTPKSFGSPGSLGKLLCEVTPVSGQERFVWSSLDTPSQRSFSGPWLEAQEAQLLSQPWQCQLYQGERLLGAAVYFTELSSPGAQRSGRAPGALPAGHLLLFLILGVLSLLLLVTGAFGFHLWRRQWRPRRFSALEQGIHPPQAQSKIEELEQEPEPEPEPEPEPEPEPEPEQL
In words: T-cell clone + JY.hPD-L1 co-culture (conclusion stated from IFNγ read-out).
Experimental: The pellets were resuspended into single cell suspension in Yssel's medium. […] Fifty microliters of T cell suspension at a density of 4×10⁵ cells/mL was added into wells containing titrated antibodies. The antibody/T cell mixture was pre-incubated for 1 hour in an incubator at 37° C. with 5% CO₂. Human PD-L1 transgene expressing JY cells (JY.hPD-L1) were used in co-cultures to provide allo-specific antigens. […] The pellet was resuspended with Yssel's medium, and filtered with 40 μm cell strainer before plating. Fifty μL/well of JY.hPD-L1 suspension at a concentration of 2×10⁵ cells/mL was dispensed into pre-incubated antibody-T cells mixture, with T cell to JY.hPD-L1 cell ratio at 2:1. All conditions were run in duplicates. After approximately 3-day culture, 100 μL of supernatant per well was harvested for human IFNγ quantification. Human IFNγ ELISA was performed to assess IFNγ level on pooled supernatant from duplicates by using hIFNγ QUANTIKINE kit (R&D Systems, SIF50). Assays were run following the standard protocol provided by manufacturer. EC50 values were calculated using the [sequence] prism software.

Numbering of substitutions follows the chain as printed. Names may count otherwise.

Sequence of human PD-1 expressed on cells (Jurkat.hPD-1.IL2luc clone DT999A1; CD4+ T cell clone BC4-49) (Q15116 25-288): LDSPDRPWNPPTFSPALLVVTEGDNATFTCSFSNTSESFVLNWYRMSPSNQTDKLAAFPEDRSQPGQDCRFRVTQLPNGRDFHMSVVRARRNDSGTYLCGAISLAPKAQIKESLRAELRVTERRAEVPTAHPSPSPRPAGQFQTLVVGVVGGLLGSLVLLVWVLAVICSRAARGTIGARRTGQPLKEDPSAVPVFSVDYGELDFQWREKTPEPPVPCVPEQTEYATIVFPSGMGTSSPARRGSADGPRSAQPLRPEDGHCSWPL
T1 sequence (Q15116 25-167 limits assumed): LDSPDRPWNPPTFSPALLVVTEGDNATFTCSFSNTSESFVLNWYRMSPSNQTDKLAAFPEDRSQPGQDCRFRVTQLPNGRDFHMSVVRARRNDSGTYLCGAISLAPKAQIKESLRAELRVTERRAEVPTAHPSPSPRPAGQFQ

B1: Humanized x [PD-1_H] Fab (08A/HuPD1A-11 S61N WT) IgG4/Kappa (00APE) (Fab, V domains shown)
VH: EVQLVQSGAEVKKPGASVKVSCKASGYTFTSYYLYWVRQAPGQGLEWIGGVNPSNGGTNFNEKFKSRVTLTVDTSISTAYMELSRLRSDDTAVYYCTRRDSNYDGGFDYWGQGTTVTVSS
VL: DIVMTQTPLSLSVTPGQPASISCRASKSVSTSGFSYLHWYLQKPGQPPQLLIFLASNLESGVPDRFSGSGSGTDFTLKISRVEAEDVGVYYCQHSWELPLTFGQGTKLEIKR
Take B1: in assay [1], the “AVG EC50, IL-2 luciferase reporter (Jurkat.hPD-1.IL2luc + THP-1.PD-L1 assay)” value (“AVG EC50, IL-2 luciferase reporter” for short) stood at 3.32 nM.

B2: Humanized x [PD-1_H] mAb (08A/HuPD1A-11 S61N CP-affinity matured Fab 100 (VH H3G9 (D100L N102H) G56A/VL L28D1) L234A L235A D265S) IgG1/Kappa (25AVE) (antibody, V domains shown)
VH: B1 VH with G56A, D100L, N102H
VL: B1 VL with A55S, S56K, N57Y, L58R, E59S, Q93S, H94Q, S95A, W96Y, E97H
notes: also called Humanized 08A IgG4 Fab 100 S61N G56A
In the case of B2, in assay [2], the “KD (REF)/KD” value amounted to 13.

B3: Anti-PD-1/LAG3 bispecific antibody 90ASU (bispecific antibody, human IgG1, kappa, L234A L235A)
heavy 1: not shown
light 1: DIVMTQTPLSLSVTPGQPASISCRASKSVSTSGFSYLHWYLQKPGQPPQLLIFLASNLESGVPDRFSGSGSGTDFTLKISRVEAEDVGVYYCQHSWELPLTFGQGTKLEIKRTVAAPSVFIFPPSDERLKSGTASVVCLLNNFYPREAKVQWKVDNALQSGNSQESVTEQDSKDSTYSLSSRLTLSKADYEKHKVYACEVTHQGLSSPVTKSFNRGEC
heavy 2: QMQLVQSGPEVKKPGTSVKVSCKASGYTFTDYNVDWVRQARGQRLEWIGDINPNDGGTIYAQKFQERVTITVDKSTSTAYMELSSLRSEDTAVYYCARNYRWFGAMDHWGQGTTVTVSSASTKGPSVFPLAPSSKSTSGGTAALGCLVKDYFPEPVTVSWNSGALTSGVHTFPAVLQSSGLYKLSSVVTVPSSSLGTQTYICNVNHKPSNTKVDKKVEPKSCDKTHTCPPCPAPEAAGGPSVFLFPPKPKDTLMISRTPEVTCVVVSVSHEDPEVKFNWYVDGVEVHNAKTKPREEQYNSTYRVVSVLTVLHQDWLNGKEYKCKVSNKALPAPIEKTISKAKGQPREPQVYVLPPSRDELTKNQVSLLCLVKGFYPSDIAVEWESNGQPENNYLTWPPVLDSDGSFFLYSKLTVDKSRWQQGNVFSCSVMHEALHNHYTQKSLSLSPG
light 2: DIVMTQTPLSLSVTPGQPASISCKASQSLDYEGDSDMNWYLQKPGQPPQLLIYGASNLESGVPDRFSGSGSGTDFTLKISRVEAEDVGVYYCQQSTEDPRTFGGGTKVEIKRTVAAPSVFIFPPSDEELKSGTATVVCLLNNFYPREAKVQWKVDNALQSGNSQESVTEQDSKDSTYSLSSYLELSKADYEKHKVYACEVTHQGLSSPVTKSFNRGEC
notes: also called Humanized x [PD-1_H]; [LAG3_H]; BsAb (hu08A S61N G56A arm / 22D2 arm) IgG1/Kappa
For B3, the “AVG EC50, IL-2 luciferase reporter” value in assay [1] amounted to 2.54 nM. In addition, the binding result in assay [3] is reported as “binds”.

B4: Anti-PD-1/LAG3 bispecific antibody 33ARK (bispecific antibody, human IgG1, kappa, L234A L235A)
heavy 1: EVQLVQSGAEVKKPGASVKVSCKASGYTFTSYYLYWVREAPGQGLEWIGGVNPSNGGTNFNEKFKSRVTLTVDTSISTAYMELSRLRSDDTAVYYCTRRDSNYDGGFDYWGQGTTVTVSSASTKGPSVFPLAPSSKSTSGGTAALGCEVTDYFPEPVTVSWNSGALTSGVHTFPAVLESSGLYSLSSVVTVPSSSLGTQTYICNVNHKPSNTKVDKKVEPKSCDKTHTCPPCPAPEAAGGPSVFLFPPKPKDTLMISRTPEVTCVVVSVSHEDPEVKFNWYVDGVEVHNAKTKPREEQYNSTYRVVSVLTVLHQDWLNGKEYKCKVSNKALPAPIEKTISKAKGQPREPQVYVLPPSRDELTKNQVSLLCLVKGFYPSDIAVEWESNGQPENNYLTWPPVLDSDGSFFLYSKLTVDKSRWQQGNVFSCSVMHEALHNHYTQKSLSLSPG
light 1: B3 light 1 with Q42R, Q164K
heavy 2: not shown
light 2: B3 light 2 with Q42E, T135S, Q164E, Y182T
B4: the “AVG EC50, IL-2 luciferase reporter” value in assay [1] came to 3.12 nM.

B5: Anti-PD-1/LAG-3 bispecific antibody (BsAb) 18ASS (bispecific antibody, human IgG1, kappa, L234A L235A)
heavy 1: not shown
light 1: B3 light 1 with A55S, S56K, N57Y, L58R, E59S, Q93S, H94Q, S95A, W96Y, E97H
heavy 2: B3 heavy 2
light 2: B3 light 2
For B5, the “AVG EC50, IL-2 luciferase reporter” value in assay [1] was found to be 0.55 nM.
